Assay results: article PMC3319458 (2012)

Molecular target: Nfs1/Isd11/Isu2 (SDU) complex (Homo sapiens, UniProt Q9Y697)
Test: cysteine desulfurase activity titration

B1: Frataxin 82-210 (protein)
chain: GTLGHPGSLDETTYERLAEETLDSLAEFFEDLADKPYTFEDYDVSFGSGVLTVKLGGDLGTYVINKQTPNKQIWLSSPSSGPKRYDWTGKNWVYSHDGVSLHELLAAELTKALKTKLDLSSLAYSGKDA
In the case of B1, the Kd is reported as 220 nM.
